For 3 molecules, interaction score results are on record in publication PMC10397247.

One assay deals with T1, P8A-bA.
T1 chain: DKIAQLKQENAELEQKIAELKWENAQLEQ
Description: two-hybrid library CCNG1.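 Further: natural log of median RNA to DNA barcode read ratio; higher means stronger binding.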

The next assay concerns the target T2, P1A-bA.
T2 chain: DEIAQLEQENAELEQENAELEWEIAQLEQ
The experiment in a line: two-hybrid library CCNG1.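 Further: natural log of median RNA to DNA barcode read ratio; higher means stronger binding.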

Another assay addresses T3, P2A-bA.
T3 chain: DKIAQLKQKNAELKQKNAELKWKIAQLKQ
The experiment in a line: two-hybrid library CCNG1.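 Further: natural log of median RNA to DNA barcode read ratio; higher means stronger binding.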

For a further assay, the target named is T4, P6A-bA.
T4 chain: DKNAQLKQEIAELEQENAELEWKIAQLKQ
The experiment in a line: two-hybrid library CCNG1.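 Further: natural log of median RNA to DNA barcode read ratio; higher means stronger binding.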

The target of a further assay is T5, P9A-bA.
T5 chain: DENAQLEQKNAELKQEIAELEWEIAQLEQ
Description: two-hybrid library CCNG1.

The target of the next assay is T6, P4A-bA.
T6 chain: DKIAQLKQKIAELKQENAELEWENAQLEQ
The experiment in a line: two-hybrid library CCNG1.

Another assay concerns the target T7, P7A-bA.
T7 chain: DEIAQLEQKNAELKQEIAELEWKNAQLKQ
Description: two-hybrid library CCNG1.

The next assay deals with T8, P11A-bA.
T8 chain: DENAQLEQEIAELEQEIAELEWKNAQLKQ
The experiment in a line: two-hybrid library CCNG1.

Another assay addresses T9, P5A-bA.
T9 chain: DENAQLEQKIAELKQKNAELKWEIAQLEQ
Description: two-hybrid library CCNG1.

Another assay deals with T10, P3A-bA.
T10 chain: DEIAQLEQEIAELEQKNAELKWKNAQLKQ
Description: two-hybrid library CCNG1.

In a further assay the target is T11, P12A-bA.
T11 chain: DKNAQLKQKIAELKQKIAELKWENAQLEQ
The experiment in a line: two-hybrid library CCNG1.

The target of a further assay is T12, 4H1360-AA.
T12 chain: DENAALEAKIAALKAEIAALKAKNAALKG
The experiment in a line: two-hybrid library CCmax. The conditions noted are these: mean of both orientations.

The next assay deals with T13, 4H2774-AA.
T13 chain: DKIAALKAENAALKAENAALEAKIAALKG
The experiment in a line: two-hybrid library CCmax. The conditions noted are these: mean of both orientations.

For a further assay, the target named is T14, 4H3129-AA.
T14 chain: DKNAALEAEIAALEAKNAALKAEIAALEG
The experiment in a line: two-hybrid library CCmax. The conditions noted are these: mean of both orientations.

Another assay deals with T15, 4H3969-AA.
T15 chain: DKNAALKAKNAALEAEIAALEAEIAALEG
Description: two-hybrid library CCmax. The following applies: mean of both orientations.

Another assay concerns the target T16, 4H2580-AA.
T16 chain: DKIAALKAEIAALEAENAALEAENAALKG
Description: two-hybrid library CCmax. The conditions noted are these: mean of both orientations.

In another assay the target is T17, 4H1349-AA.
T17 chain: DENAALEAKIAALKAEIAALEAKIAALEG
The experiment in a line: two-hybrid library CCmax. The following applies: mean of both orientations.

For the next assay, the target named is T18, 4H130-AA.
T18 chain: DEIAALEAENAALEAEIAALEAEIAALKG
Description: two-hybrid library CCmax.

In another assay the target is T19, 4H2699-AA.
T19 chain: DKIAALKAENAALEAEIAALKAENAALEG
The experiment in a line: two-hybrid library CCmax. The conditions noted are these: mean of both orientations.

The next assay concerns the target T20, 4H446-AA.
T20 chain: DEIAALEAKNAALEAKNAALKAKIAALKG
The experiment in a line: two-hybrid library CCmax. The following applies: mean of both orientations.

In a further assay the target is T21, 4H1454-AA.
T21 chain: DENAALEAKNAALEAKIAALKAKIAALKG
Description: two-hybrid library CCmax. The following applies: mean of both orientations.

Another assay concerns the target T22, 4H464-AA.
T22 chain: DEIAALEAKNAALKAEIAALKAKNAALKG
The experiment in a line: two-hybrid library CCmax. The following applies: mean of both orientations.

The next assay has as its target T23, 4H1913-AA.
T23 chain: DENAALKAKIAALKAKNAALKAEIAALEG
Description: two-hybrid library CCmax. The following applies: mean of both orientations.

A further assay deals with T24, 4H3939-AA.
T24 chain: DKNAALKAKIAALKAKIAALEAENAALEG
Description: two-hybrid library CCmax. The conditions noted are these: mean of both orientations.

Another assay has as its target T25, 4H483-AA.
T25 chain: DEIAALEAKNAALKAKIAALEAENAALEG
The experiment in a line: two-hybrid library CCmax. The following applies: mean of both orientations.

The target in the next assay is T26, 4H63-AA.
T26 chain: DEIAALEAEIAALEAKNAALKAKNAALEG
Description: two-hybrid library CCmax. The following applies: mean of both orientations.

The next assay deals with T27, 4H380-AA.
T27 chain: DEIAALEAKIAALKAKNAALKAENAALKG
Description: two-hybrid library CCmax. The conditions noted are these: mean of both orientations.

Another assay addresses T28, 4H3595-AA.
T28 chain: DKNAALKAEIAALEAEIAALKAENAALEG
Description: two-hybrid library CCmax. The following applies: mean of both orientations.

The next assay concerns the target T29, 4H2728-AA.
T29 chain: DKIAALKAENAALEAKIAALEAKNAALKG
Description: two-hybrid library CCmax. The conditions noted are these: mean of both orientations.

A further assay deals with T30, 4H3049-AA.
T30 chain: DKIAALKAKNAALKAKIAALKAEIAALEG
Description: two-hybrid library CCmax. The following applies: mean of both orientations.

For the next assay, the target named is T31, 4H2621-AA.
T31 chain: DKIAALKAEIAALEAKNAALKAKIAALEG
Description: two-hybrid library CCmax. The conditions noted are these: mean of both orientations.

In the next assay the target is T32, 4H3629-AA.
T32 chain: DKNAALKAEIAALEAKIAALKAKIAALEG
The experiment in a line: two-hybrid library CCmax. The conditions noted are these: mean of both orientations.

The next assay has as its target T33, 4H3782-AA.
T33 chain: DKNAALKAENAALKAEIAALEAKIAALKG
Description: two-hybrid library CCmax. The following applies: mean of both orientations.

A further assay deals with T34, 4H249-AA.
T34 chain: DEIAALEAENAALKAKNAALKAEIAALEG
The experiment in a line: two-hybrid library CCmax. The following applies: mean of both orientations.

In another assay the target is T35, 4H341-AA.
T35 chain: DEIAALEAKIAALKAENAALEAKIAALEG
Description: two-hybrid library CCmax. The conditions noted are these: mean of both orientations.

Another assay has as its target T36, 4H2961-AA.
T36 chain: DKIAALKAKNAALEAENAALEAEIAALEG
Description: two-hybrid library CCmax.

Another assay concerns the target T37, 4H2903-AA.
T37 chain: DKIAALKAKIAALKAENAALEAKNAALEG
The experiment in a line: two-hybrid library CCmax. The following applies: mean of both orientations.

In the next assay the target is T38, 4H3414-AA.
T38 chain: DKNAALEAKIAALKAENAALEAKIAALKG
The experiment in a line: two-hybrid library CCmax. The following applies: mean of both orientations.

The target in the next assay is T39, 4H1558-AA.
T39 chain: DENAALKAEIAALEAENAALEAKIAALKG
The experiment in a line: two-hybrid library CCmax. The following applies: mean of both orientations.

With DENAQLEQEIAELEQEIAELEWKNAQLKQ [P11A-bA], the interaction score in the assay with P8A-bA was -0.166; in the assay with P1A-bA, 0.307; with P2A-bA, 1.07; with P6A-bA, 0.118; with P9A-bA, -0.585; with P4A-bA it was 1.83. The interaction score is -1.28 with P7A-bA; -1.39 with P11A-bA; 0.849 with P5A-bA; -0.656 with P3A-bA; 1.91 with P12A-bA.

As to DKNAQLKQENAELEQKIAELKWKIAQLKQ [P10A-bA], the interaction score with P8A-bA is -0.165; with P1A-bA it was 0.776; with P2A-bA it was -0.362; with P6A-bA, -0.543; with P4A-bA, 0.592; in the assay with P7A-bA, 1.04. Besides, the interaction score with P11A-bA was 0.99; with P5A-bA it was 0.318; with P3A-bA it was 0.562; with P12A-bA it was 0.511.

Consider DEIAALEAENAALEAEIAALEAEIAALKG [4H130-AA], for which the interaction score in the assay with 4H1360-AA is 1.22; with 4H2774-AA, 0.9; in the assay with 4H3129-AA, -0.746; with 4H3969-AA it was -0.404; in the assay with 4H2580-AA, -1.46; in the assay with 4H1349-AA it was -0.443. Further, the interaction score is 1.11 in the assay with 4H130-AA; -0.46 with 4H2699-AA; 1.05 with 4H446-AA; 1.52 in the assay with 4H1454-AA; 1.95 in the assay with 4H464-AA; 1.08 in the assay with 4H1913-AA. For the same molecule, the interaction score with 4H3939-AA was 1.29; in the assay with 4H483-AA it was 0.0918; in the assay with 4H63-AA it was -1.29; in the assay with 4H380-AA, -0.0955; with 4H3595-AA, 0.698; with 4H2728-AA, 0.54. Also, the interaction score was found to be 1.67 in the assay with 4H3049-AA; 0.962 with 4H2621-AA; 0.896 in the assay with 4H3629-AA; 1.3 with 4H3782-AA; 1.18 in the assay with 4H249-AA; 0.154 with 4H341-AA. For the same molecule, the interaction score with 4H2961-AA was -0.589; in the assay with 4H2903-AA, -1.15; with 4H3414-AA it was 1; in the assay with 4H1558-AA it was -0.952.
